In the experiment the target is purified human complement Factor H (human) (UniProt P08603). The experiment in a line: steady state fluorescence titration of purified human Factor H.
purified human complement Factor H (human), sequence (P08603 19-1231 limits assumed): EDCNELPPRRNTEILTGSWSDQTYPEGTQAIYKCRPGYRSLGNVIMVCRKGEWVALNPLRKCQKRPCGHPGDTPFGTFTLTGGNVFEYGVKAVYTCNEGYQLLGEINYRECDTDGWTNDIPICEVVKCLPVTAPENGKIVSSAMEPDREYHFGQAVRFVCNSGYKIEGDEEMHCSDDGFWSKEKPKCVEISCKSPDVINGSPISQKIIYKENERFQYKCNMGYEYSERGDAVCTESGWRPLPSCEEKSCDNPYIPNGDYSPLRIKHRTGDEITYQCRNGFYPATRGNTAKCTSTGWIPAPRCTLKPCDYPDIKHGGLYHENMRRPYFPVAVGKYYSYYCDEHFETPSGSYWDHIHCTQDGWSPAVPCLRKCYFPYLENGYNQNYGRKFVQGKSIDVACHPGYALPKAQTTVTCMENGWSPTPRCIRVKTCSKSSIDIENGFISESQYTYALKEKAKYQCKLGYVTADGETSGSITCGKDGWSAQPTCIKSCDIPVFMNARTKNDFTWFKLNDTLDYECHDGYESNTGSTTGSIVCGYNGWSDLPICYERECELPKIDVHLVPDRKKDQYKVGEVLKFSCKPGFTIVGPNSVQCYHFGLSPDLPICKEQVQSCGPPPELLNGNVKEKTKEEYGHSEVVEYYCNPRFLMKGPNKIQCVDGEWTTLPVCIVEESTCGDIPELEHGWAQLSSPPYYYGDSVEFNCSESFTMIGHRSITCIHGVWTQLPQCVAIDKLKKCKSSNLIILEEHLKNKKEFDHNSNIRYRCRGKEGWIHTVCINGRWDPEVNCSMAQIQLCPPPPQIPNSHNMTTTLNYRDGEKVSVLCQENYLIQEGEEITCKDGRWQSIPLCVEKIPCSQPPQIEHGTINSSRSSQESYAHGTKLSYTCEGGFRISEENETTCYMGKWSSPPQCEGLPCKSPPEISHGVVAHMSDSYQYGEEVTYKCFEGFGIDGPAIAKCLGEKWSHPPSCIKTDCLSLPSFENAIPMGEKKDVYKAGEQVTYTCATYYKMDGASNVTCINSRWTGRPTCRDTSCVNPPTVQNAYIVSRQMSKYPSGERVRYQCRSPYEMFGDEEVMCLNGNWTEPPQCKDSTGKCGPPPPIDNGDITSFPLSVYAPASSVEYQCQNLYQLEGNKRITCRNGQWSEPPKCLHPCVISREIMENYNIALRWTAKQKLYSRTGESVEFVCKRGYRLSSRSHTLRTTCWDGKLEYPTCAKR

In turn, “recombinant osteopontin (rOPN) (from UniProt P10451 17-314) (ligand)” displayed a stoichiometry (OPN:Factor H) of 1 molar ratio.
